One molecule from article PMC3315801 can be followed below.

This assay concerns the target T1, CPY*-CPY fusion protein (S. cerevisiae) (UniProt P00729).
T1 sequence (P00729 whole entry, looked up): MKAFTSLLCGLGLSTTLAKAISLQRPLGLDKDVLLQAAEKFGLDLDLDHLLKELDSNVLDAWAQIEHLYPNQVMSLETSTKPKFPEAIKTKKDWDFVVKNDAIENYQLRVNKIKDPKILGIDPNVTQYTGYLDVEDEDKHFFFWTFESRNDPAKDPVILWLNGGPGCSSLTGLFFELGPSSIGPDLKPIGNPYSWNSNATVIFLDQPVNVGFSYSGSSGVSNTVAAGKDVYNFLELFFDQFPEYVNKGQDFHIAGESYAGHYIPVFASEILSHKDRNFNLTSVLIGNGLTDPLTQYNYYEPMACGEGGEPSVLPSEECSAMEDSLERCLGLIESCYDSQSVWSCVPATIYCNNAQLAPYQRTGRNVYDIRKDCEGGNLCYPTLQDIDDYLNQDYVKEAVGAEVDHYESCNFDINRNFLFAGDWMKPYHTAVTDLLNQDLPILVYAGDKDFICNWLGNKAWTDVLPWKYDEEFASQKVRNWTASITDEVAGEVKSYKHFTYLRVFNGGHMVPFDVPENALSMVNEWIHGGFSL
The assay can be described thus: co-IP.

B1: Hrd1p (enzyme)
chain: MVPENRRKQLAIFVVVTYLLTFYCVYSATKTSVSFLQVTLKLNEGFNLMVLSIFILLNSTLLWQLLTKLLFGELRLIEHEHIFERLPFTIINTLFMSSLFHERYFFTVAFFGLLLLYLKVFHWILKDRLEALLQSINDSTTMKTLIFSRFSFNLVLLAVVDYQIITRCISSIYTNQKSDIESTSLYLIQVMEFTMLLIDLLNLFLQTCLNFWEFYRSQQSLSNENNHIVHGDPTDENTVESDQSQPVLNDDDDDDDDDRQFTGLEGKFMYEKAIDVFTRFLKTALHLSMLIPFRMPMMLLKDVVWDILALYQSGTSLWKIWRNNKQLDDTLVTVTVEQLQNSANDDNICIICMDELIHSPNQQTWKNKNKKPKRLPCGHILHLSCLKNWMERSQTCPICRLPVFDEKGNVVQTTFTSNSDITTQTTVTDSTGIATDQQGFANEVDLLPTRTTSPDIRIVPTQNIDTLAMRTRSTSTPSPTWYTFPLHKTGDNSVGSSRSAYEFLITNSDEKENGIPVKLTIENHEVNSLHGDGGEQIAKKIVIPDKFIQHI
Take B1: the inhibition of the co-precipitation in yos9Δ cells against wild-type cells was determined as 70%.
